Measured values taken from the supplement of paper PMC6379048.

Assays:
Test in all cases: Kd (EC50 corrected by depletion factor)
RPS20 = RPS20 (UniProt P60866)
Outline: (§1)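 Free RNA oligos (0 nM to 30 μM) competed for 1 h at 4°C in HEK293-FT lysate (2.5 mg protein/well) before a 30 min, 4°C pulldown with the same oligos on NHS-Sepharose beads. Bound proteins were quantified by label-free LC-MS/MS and normalised to the control. Kd was found by multiplying EC50, from a four-parameter log-logistic fit, by a protein-dependent depletion factor.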

CPSF2 = target: T1, CPSF2 (UniProt Q9P2I0)
T1 sequence: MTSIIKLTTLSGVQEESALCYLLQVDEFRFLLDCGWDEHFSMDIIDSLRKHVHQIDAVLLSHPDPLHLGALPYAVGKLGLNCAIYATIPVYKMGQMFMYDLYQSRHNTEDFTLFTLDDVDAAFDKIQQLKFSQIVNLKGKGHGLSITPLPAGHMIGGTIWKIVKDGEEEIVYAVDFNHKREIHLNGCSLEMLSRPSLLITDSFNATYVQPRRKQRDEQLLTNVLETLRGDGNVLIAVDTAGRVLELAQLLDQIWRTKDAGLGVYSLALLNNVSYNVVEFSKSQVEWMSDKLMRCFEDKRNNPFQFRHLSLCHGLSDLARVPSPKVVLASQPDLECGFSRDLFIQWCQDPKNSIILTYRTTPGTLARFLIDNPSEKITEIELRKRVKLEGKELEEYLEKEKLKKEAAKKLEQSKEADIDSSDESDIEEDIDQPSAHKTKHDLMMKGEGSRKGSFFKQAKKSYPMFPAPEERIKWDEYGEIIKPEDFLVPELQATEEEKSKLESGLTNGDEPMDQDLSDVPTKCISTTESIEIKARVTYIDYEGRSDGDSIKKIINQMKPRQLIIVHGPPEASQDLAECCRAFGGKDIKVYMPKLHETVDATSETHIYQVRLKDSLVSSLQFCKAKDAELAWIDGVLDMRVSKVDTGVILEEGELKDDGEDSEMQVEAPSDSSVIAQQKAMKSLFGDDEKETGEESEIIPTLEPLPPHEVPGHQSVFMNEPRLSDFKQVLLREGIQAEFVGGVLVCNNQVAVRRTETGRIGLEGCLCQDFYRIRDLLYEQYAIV
Outline: as §1

GPATCH3 = target: T2, GPATCH3 (UniProt Q96I76)
T2 sequence: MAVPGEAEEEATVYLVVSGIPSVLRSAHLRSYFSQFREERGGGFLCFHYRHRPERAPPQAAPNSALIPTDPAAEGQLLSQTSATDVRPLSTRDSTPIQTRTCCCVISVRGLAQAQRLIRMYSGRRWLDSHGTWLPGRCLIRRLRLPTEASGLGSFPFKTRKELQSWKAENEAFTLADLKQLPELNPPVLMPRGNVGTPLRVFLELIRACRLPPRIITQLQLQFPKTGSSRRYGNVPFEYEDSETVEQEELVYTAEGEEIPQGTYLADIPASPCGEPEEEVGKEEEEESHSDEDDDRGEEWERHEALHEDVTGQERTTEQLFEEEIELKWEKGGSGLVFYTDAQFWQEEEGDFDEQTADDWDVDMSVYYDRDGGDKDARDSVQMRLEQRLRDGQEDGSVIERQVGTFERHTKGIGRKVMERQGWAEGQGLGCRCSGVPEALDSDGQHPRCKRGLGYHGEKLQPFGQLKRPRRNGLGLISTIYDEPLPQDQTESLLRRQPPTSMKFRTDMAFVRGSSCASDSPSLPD
Outline: as §1

KHSRP = target: T3, KHSRP (UniProt Q92945)
T3 sequence: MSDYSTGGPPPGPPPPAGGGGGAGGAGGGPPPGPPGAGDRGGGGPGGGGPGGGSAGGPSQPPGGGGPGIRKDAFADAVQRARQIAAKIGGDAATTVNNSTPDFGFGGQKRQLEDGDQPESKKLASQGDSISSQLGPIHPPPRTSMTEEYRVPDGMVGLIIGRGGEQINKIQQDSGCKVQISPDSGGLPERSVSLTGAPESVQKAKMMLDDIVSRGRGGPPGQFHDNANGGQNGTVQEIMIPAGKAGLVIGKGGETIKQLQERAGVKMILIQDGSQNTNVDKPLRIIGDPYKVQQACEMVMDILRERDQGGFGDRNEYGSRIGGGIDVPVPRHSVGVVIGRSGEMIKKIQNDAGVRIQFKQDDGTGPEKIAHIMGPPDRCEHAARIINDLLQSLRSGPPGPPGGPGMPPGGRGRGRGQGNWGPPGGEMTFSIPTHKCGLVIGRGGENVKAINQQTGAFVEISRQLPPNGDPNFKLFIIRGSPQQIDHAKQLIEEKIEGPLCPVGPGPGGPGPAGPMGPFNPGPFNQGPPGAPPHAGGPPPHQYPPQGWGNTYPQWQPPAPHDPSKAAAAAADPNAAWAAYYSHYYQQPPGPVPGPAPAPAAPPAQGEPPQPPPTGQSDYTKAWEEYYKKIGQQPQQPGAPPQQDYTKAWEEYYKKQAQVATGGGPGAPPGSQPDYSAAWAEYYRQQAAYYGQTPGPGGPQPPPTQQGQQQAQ
Outline: as §1

RBMS1 = target: T4, RBMS1 (UniProt P29558)
T4 sequence: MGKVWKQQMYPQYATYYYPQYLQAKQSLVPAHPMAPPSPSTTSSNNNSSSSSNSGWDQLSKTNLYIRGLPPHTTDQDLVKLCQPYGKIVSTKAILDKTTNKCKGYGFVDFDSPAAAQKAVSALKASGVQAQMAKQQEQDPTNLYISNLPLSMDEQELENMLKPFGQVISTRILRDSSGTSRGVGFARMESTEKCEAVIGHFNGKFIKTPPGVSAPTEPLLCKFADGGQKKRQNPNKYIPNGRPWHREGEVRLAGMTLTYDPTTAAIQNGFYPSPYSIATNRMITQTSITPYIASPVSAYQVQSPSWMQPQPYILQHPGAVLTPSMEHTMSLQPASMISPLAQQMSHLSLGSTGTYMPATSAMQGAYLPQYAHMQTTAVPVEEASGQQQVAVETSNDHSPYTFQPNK
Outline: as §1

Row | Sequence | Kd (RPS20) [nM] | Kd (CPSF2) [nM] | Kd (GPATCH3) [nM] | Kd (KHSRP) [nM] | Kd (RBMS1) [nM]
1 | CUGUCCU | 59.8 | – | – | – | –
2 | AAUAAA | 2300 | 5.66 | 196 | 310 | 156
3 | UAUUUAU | – | 452 | 243 | 928 | 114
